Experimental data from US20110053865A1 (Ablynx, published 2011).
Substitutions are numbered along the chain they refer to. Values joined by “and” are separate entries in the source; they are usually repeats but may differ in a detail not shown here. Equal entries are not always repeated. Where two headings read alike, the source gives them in different places.

How the values were obtained:
[1] = molecular target: T1, recombinant human IL-23 (p19/p40) (human, UniProt Q9NPF7 20-189; P29460 23-328); assay: cell-based or functional assay
T1 sequence (looked up) 1: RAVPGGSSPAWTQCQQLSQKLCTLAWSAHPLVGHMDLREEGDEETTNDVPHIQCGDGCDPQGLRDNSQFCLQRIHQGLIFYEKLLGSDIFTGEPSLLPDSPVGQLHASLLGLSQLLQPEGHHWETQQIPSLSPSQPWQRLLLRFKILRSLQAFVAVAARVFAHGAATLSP
T1 sequence (looked up) 2: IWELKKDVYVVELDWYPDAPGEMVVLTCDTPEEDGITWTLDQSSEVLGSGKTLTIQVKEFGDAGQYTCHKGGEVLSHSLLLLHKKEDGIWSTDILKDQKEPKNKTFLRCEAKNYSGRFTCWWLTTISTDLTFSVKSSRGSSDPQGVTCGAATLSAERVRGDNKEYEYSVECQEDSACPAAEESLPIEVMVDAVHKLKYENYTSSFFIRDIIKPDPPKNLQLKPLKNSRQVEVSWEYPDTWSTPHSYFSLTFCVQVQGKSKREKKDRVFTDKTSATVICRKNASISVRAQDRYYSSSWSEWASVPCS

[2] = molecular target: T1, recombinant human IL-23 (p19/p40); assay: cell-based or functional assay; remark: listed apart in the source
cynomolgus IL-23 [3] = molecular target: cynomolgus IL-23 (cynomolgus); assay: cell-based or functional assay
[4] = molecular target: T1, recombinant human IL-23 (p19/p40); assay: cell-based or functional assay; remark: listed apart in the source
[5] = molecular target: T1, recombinant human IL-23 (p19/p40); assay: cell-based or functional assay; remark: listed apart in the source
cynomolgus IL-23 [6] = molecular target: cynomolgus IL-23 (cynomolgus); assay: cell-based or functional assay; remark: listed apart in the source
[7] = molecular target: T1, recombinant human IL-23 (p19/p40); assay: cell-based or functional assay; remark: listed apart in the source
[8] = molecular target: T1, recombinant human IL-23 (p19/p40); assay: comp alpha-screen hIL-23
[9] = molecular target: T1, recombinant human IL-23 (p19/p40); assay: 'potency assay', not specified (probably the inhibition ELISA of Example 34)
[10] = molecular target: T1, recombinant human IL-23 (p19/p40); assay: cell-based or functional assay; remark: listed apart in the source
cynomolgus IL-23 [11] = molecular target: cynomolgus IL-23 (cynomolgus); assay: cell-based or functional assay; remark: listed apart in the source
cynomolgus IL-23 [12] = molecular target: T2, cynomolgus IL-23 (cynomolgus); assay: alpha-screen, cIL-23/IL-23R
T2 construct: also called cyno IL-23; cIL-23

[13] = molecular target: T1, recombinant human IL-23 (p19/p40); assay: alpha-screen, hIL-23/IL-23R
[14] = molecular target: T1, recombinant human IL-23 (p19/p40); assay: SPR Biacore 3000, hIL-23 on chip
Description: Binding kinetics of the second round variants are in depth analysed by Surface Plasmon Resonance (Biacore 3000). […] Nanobody binding was assessed at one concentration (100 nM). Each Nanobody was injected for 4 minutes at a flow rate of 45 μl/min to allow binding to chip-bound antigen. Next, binding buffer without Nanobody was sent over the chip at the same flow rate to allow spontaneous dissociation of bound Nanobody.

[15] = molecular target: T1, recombinant human IL-23 (p19/p40); assay: cell-based or functional assay; remark: listed apart in the source
[16] = molecular target: T1, recombinant human IL-23 (p19/p40); assay: cell-based or functional assay; remark: listed apart in the source
[17] = molecular target: T1, recombinant human IL-23 (p19/p40); assay: SPR Biacore, hIL-23
[18] = molecular target: T1, recombinant human IL-23 (p19/p40); assay: SPR Biacore, hIL-23; remark: listed apart in the source
[19] = molecular target: T1, recombinant human IL-23 (p19/p40); assay: SPR Biacore, hIL-23; remark: listed apart in the source
[20] = molecular target: T1, recombinant human IL-23 (p19/p40); assay: SPR Biacore, hIL-23; remark: listed apart in the source
[21] = molecular target: T1, recombinant human IL-23 (p19/p40); assay: SPR Biacore, eBiosc hIL-23
[22] = molecular target: T1, recombinant human IL-23 (p19/p40); assay: SPR Biacore, hIL-23 on chip
Description: Nanobody binding was assessed at one concentration (100 nM). Each Nanobody was injected for 4 minutes at a flow rate of 45 μl/min to allow binding to chip-bound antigen. Next, binding buffer without Nanobody was sent over the chip at the same flow rate to allow spontaneous dissociation of bound Nanobody.

cynomolgus IL-23 [23] = molecular target: T2, cynomolgus IL-23; assay: SPR Biacore, cyno IL-23 on chip

B1: P23IL-121A2 (VHH)
VHH: EVQLVESGGGLVQAGGSLRLSCAASGSIFNFNYMGWFRQAPGKEREFVAAIRWSGSSTYYADSVKGRFTISRDDAKNTVALQMNSLKPEDTAIYYCALRKGIPYSTSDRVIKGVNDYDYWGQGTQVTVSS
Q: With B1 as the binder, how does the “IC50, splenocyte assay (mIL-17)” value [1] read?
A: ~1.5 nM

B2: P23IL119A3-35GS-81G2-GGGC-PEG40 linear (bispecific antibody)
chain: EVQLVESGGGLVQAGGSLRLSCAASGRIFSLPASGNIFNLLTIAWHRQAPGMQRELVATINSGSRTNYADSVKGRFTISRDNAQKTVYLQMNNLKPEDTAVYYCQTSGSGSPNFWGQGTQVTVSSGGGGSGGGGSGGGGSGGGGSGGGGSGGGGSGGGGSEVQLVESGGGLVQPGGSLRLSCIASGLPFSTKSMGWFRQAPGKEREFVARISPGGTSRYYGDFVKGRFAISRDNAKNTTWLQMNSLKAEDTAVYYCASGERSTYIGSNYYRTNEYDYWGTGTQVTVSSGGGC
modifications: linear mPEG40 (maleimide) on the C-terminal Cys of GGGC
Q: Which results are given for B2?
A: IC50, splenocyte assay, 19 pM hIL-23 [2]: 7.1 pM; IC50, splenocyte assay, 3.8 pM cIL-23 (cynomolgus IL-23 [3]): 4.7 pM; IC50, BAF3 proliferation assay, 76 pM hIL-23 [4]: 58.5 pM; IC50, splenocyte assay, 19 pM hIL-23 [5]: 7.1 pM; IC50, splenocyte assay, 3.8 pM cIL-23 (cynomolgus IL-23 [6]): 4.7 pM; IC50, BA/F3 proliferation assay, 76 pM hIL-23 [7]: 71 pM

B3: P23IL119A3-35GS-81G2-GGGC-PEG40 branched (bispecific antibody)
chain: B2 chain
modifications: branched mPEG40 (maleimide) on the C-terminal Cys of GGGC
Q: With B3 as the binder, how does the “IC50, splenocyte assay, 19 pM hIL-23” value [2] read?
A: 5.6 pM

Q: And the “IC50, splenocyte assay, 3.8 pM cIL-23” value (cynomolgus IL-23 [3])?
A: 5.3 pM

Q: What about the “IC50, BAF3 proliferation assay, 76 pM hIL-23” value [4] of the same binder?
A: 61.2 pM

B4: P23IL37D5v16 (VHH)
VHH: EVQLLESGGGLVQPGGSLRLSCAASGFTLDYLAIGWFRQAPGKGREGVSCVSSSGQYTYYADSVKGRFTISRDNSKNTVYLQMNSLRPEDTAVYYCATDPECYRVRGYYNGEYDYWGQGTLVTVSS
notes: Humanization variant of 37D5
Q: What does the source list for B4?
A: IC50 [8]: 0.044 nM; IC50 [9]: 0.0888 nM

B5: P23IL119A3v16 (VHH)
VHH: EVQLLESGGGLVQPGGSLRLSCAASGRIFSLPASGNIFNLLTIAWYRQAPGKGRELVATINSGSRTYYADSVKGRFTISRDNSKKTLYLQMNSLRPEDTAVYYCQTSGSGSPNFWGQGTLVTVSS
notes: Final humanization variant of 119A3
Q: For B5, which “IC50, splenocyte assay hIL-23” value [10] is on record?
A: 45.1 nM

Q: What about the “IC50, splenocyte assay cIL-23” value (cynomolgus IL-23 [11]) of the same binder?
A: 82.6 nM

Q: And the IC50 (cynomolgus IL-23 [12])?
A: 0.7 nM

Q: What about the IC50 [13] of the same binder?
A: 1.24 nM

Q: And the koff [14]?
A: 0.0055 s⁻¹ and 0.0019 s⁻¹

B6: P23IL-121A2-35GS-81G2 (bispecific antibody)
chain: EVQLVESGGGLVQAGGSLRLSCAASGSIFNFNYMGWFRQAPGKEREFVAAIRWSGSSTYYADSVKGRFTISRDDAKNTVALQMNSLKPEDTAIYYCALRKGIPYSTSDRVIKGVNDYDYWGQGTQVTVSSGGGGSGGGGSGGGGSGGGGSGGGGSGGGGSGGGGSEVQLVESGGGLVQPGGSLRLSCIASGLPFSTKSMGWFRQAPGKEREFVARISPGGTSRYYGDFVKGRFAISRDNAKNTTWLQMNSLKAEDTAVYYCASGERSTYIGSNYYRTNEYDYWGTGTQVTVSS
Q: B6 was tested. Which “IC50, splenocyte assay (mIL-17)” value [1] did it give?
A: ~0.09 nM

Q: What about the “IC50, splenocyte assay, 19 pM hIL-23” value [15] of the same binder?
A: 94 pM

Q: What about the “IC50, splenocyte assay, 19 pM hIL-23” value [2] of the same binder?
A: 154 pM

B7: P23IL-121A2-35GS-119G7 (bispecific antibody)
chain: EVQLVESGGGLVQAGGSLRLSCAASGSIFNFNYMGWFRQAPGKEREFVAAIRWSGSSTYYADSVKGRFTISRDDAKNTVALQMNSLKPEDTAIYYCALRKGIPYSTSDRVIKGVNDYDYWGQGTQVTVSSGGGGSGGGGSGGGGSGGGGSGGGGSGGGGSGGGGSEVQLVESGGGLVQAGGSLTLSCAVSGLTFNNYAMGWFRQVPGKEREFVAAISRSGLRTFYSDSVKGRFTISRDSAKSTVYVQMNNLKPEDTAVYFCAADRRTYYSEGPSLTDTLRYDYWGQGTQVTVSS
Q: For B7, which “IC50, splenocyte assay (mIL-17)” value [1] is on record?
A: 0.03 to 0.06 nM

Q: And the “IC50, splenocyte assay, 37 pM hIL-23” value [16]?
A: 42 pM

Q: What about the “IC50, splenocyte assay, 19 pM hIL-23” value [2] of the same binder?
A: 26 pM

B8: P23IL-121A2-9GS-119G7 (bispecific antibody)
chain: EVQLVESGGGLVQAGGSLRLSCAASGSIFNFNYMGWFRQAPGKEREFVAAIRWSGSSTYYADSVKGRFTISRDDAKNTVALQMNSLKPEDTAIYYCALRKGIPYSTSDRVIKGVNDYDYWGQGTQVTVSSGGGGSGGGSEVQLVESGGGLVQAGGSLTLSCAVSGLTFNNYAMGWFRQVPGKEREFVAAISRSGLRTFYSDSVKGRFTISRDSAKSTVYVQMNNLKPEDTAVYFCAADRRTYYSEGPSLTDTLRYDYWGQGTQVTVSS
Q: How did the “IC50, splenocyte assay, 37 pM hIL-23” value [16] turn out when B8 was run?
A: 4760 pM

B9: P23IL81A12 (VHH)
VHH: EVQLVESGGGLVQAGGSLRLSCAASGRTLSSYAMGWFRQAPGKEREFVARISQGGTAIYYADSVKGRFTISRDNAKNTVYLQMNSLKPEDTAVYYCAKDPSPYYRGSAYLLSGSYDSWGQGTQVTVSS
notes: p19- Nanobody
Q: How did the koff [17] turn out when B9 was run?
A: 0.00022 s⁻¹

Q: What about the Kd [18] of the same binder?
A: 0.38 nM

Q: What about the koff [18] of the same binder?
A: 0.00021 s⁻¹

Q: What about the kon [18] of the same binder?
A: 560000 M⁻¹ s⁻¹

B10: P23IL81A12-BASIC (VHH)
VHH: B9 VHH with A14P, V79L, K87R, Q123L
Q: How did the koff [17] turn out when B10 was run?
A: 0.00024 s⁻¹

B11: P23IL81G2-BASIC (VHH, name in Kabat numbering)
VHH: EVQLVESGGGLVQPGGSLRLSCIASGLPFSTKSMGWFRQAPGKGREFVARISPGGTSRYYGDFVKGRFAISRDNAKNTTWLQMNSLKAEDTAVYYCASGERSTYIGSNYYRTNEYDYWGTGTLVTVSS
notes: The sentence giving the two substitutions prints 'P23IL81A12basic' within the 81G2 paragraph
Q: With B11 as the binder, how does the koff [19] read?
A: 0.00032 s⁻¹

B12: P23IL81G2 (VHH)
VHH: B11 VHH with G44E, L123Q
notes: p19- Nanobody
Q: Which results are given for B12?
A: koff [19]: 0.00034 s⁻¹; koff [20]: 0.00039 s⁻¹; kon [20]: 520000 M⁻¹ s⁻¹; Kd [21]: 0.75 nM

B13: P23IL81G2v11 (VHH)
VHH: B11 VHH with V5L, I23A, A49S, A69T, A75S, T79L, W80Y, K87R, T120Q
notes: Final humanization variant of 81G2
Q: For B13, which koff [20] is on record?
A: 0.00031 s⁻¹

Q: And the kon [20]?
A: 610000 M⁻¹ s⁻¹

Q: What about the Kd [21] of the same binder?
A: 0.51 nM

B14: P23IL 81A1 (VHH)
VHH: EVQLVESGGGLVQTGGSLRLSCAASVINFRLADMDWYRQALGKQRELVASISTGYRTNYADFVKGRFTISRDNAKNTVYLQMDSLKPEDTAVYYCAARDLRGLRVDYWGQGTQVTVSS
Q: Which results are given for B14?
A: koff [22]: 0.00059 s⁻¹; koff (cynomolgus IL-23 [23]): 0.012 s⁻¹

B15: P23IL80D10 (VHH)
VHH: EVQLVESGGGLVQAGGSLRLSCAASGRTFEGNPMGWFRQASGKKREFVASIDWSGGITSYADSVKGRFTISRDNAKNTVYLQMNSLKPEDTAVYYCAASARFGSGSYYDLMYDYWGQGTQVTVSS
notes: p40- Nanobody
Q: What does the source list for B15?
A: koff [22]: 9.7e-05 s⁻¹; koff (cynomolgus IL-23 [23]): 0.000105 s⁻¹ and 7.9e-05 s⁻¹

B16: P23IL 84G1 (VHH)
VHH: EVQLVESGGGMVQAGGSLRLSCTASGLTDNSYAMGWFRRAPGKEREFLTGLTLSGGSTYYADSVKGRFTTSRDSQKNTVSLQMNSLKPEDTAVYYCAANRFGYGSAAYTPDNYNYWAQGTQVTVSS
notes: p40- Nanobody
Q: With B16 as the binder, how does the koff [22] read?
A: 0.0002 s⁻¹

Q: What about the koff (cynomolgus IL-23 [23]) of the same binder?
A: 0.0024 s⁻¹

B17: P23IL 22D10 (VHH)
VHH: EVQLVESGGGLVQAGASLRLSCAASGRTFRSYNMGWLRQAPGKEREFVATISWNAGIPYYADSVKGRFTISRDNAKNTVYLQMNSLKPEDTAVYYCAASNSWSSSARFYDYWGQGTQVTVSS
notes: p40- Nanobody
Q: Which koff [22] does the source give for B17 here?
A: 0.001 s⁻¹

Q: And the koff (cynomolgus IL-23 [23])?
A: 0.0001 s⁻¹
